Reference: the RNAGym collection of RNA variant scans (doi:10.7554/elife.80360)

B1: HDV Ribozyme (parent)
chain: GGCCGGCAUGGUCCCAGCCUCCUCGCUGGCGCCGGCUGGGCAACAUUCCGAGGGGACCGUCCCCUCGGUAAUGGCGAAUGGGACCCA

Variants of: B1
Test: self-cleavage, relative activity (ratio to wild type); higher = more cleavage; co-transcriptional
Work on GGCCGGCAUGGUCCCAGCCUCCUCGCUGGCGCCCGCUGGGCAACAUUCCGAGGGGACCGUGCCCUCGGUAAUGGCGAAUGGGACCCA yielded a self-cleavage of 0.231.
GGCCGGCAUGGUCCCAGCCUCCUCGCUGGCGCCCGCUGGGCAACAUUCCGAGGGGACCGUCCCCUCGGUAAUGGUGAAUGGGACCCA showed a self-cleavage of 0.0405.
GGCCGGCAUGGUCCCAGCCUCCUCGCUGGCGCCCGCUGGGCAACAUUCCGAGGGGACCGUCCCCUCGGUAAUGGGGAAUGGGACCCA showed a self-cleavage of 0.131.
With GGCCGGCAUGGUCCCAGCCUCCUCGCUGGCGCCCGCUGGGCAACAUUCCGAGGGGACCGUCCCCUCGGUAAUGGAGAAUGGGACCCA the self-cleavage was 0.131.
GGCCGGCAUGGUCCCAGCCUCCUCGCUGGCGCCCGUUGGGCAACAUUCCGAGGGGACCGUCCCCUCGGUAAUGGCGAAUGGGACCCA showed a self-cleavage of 0.0332.
In the case of GGCCGGCAUGGUCCCAGCCUCCUCGCUGGCGCCCGCUGGGCAACAUUCCGAGGGGACCGUCCCCUCGGUAAUAGCGAAUGGGACCCA, the self-cleavage is reported as 0.106.
GGCCGGCAUGGUCCCAGCCUCCUCGCUGGCGCCCGCUGGGCAAGAUUCCGAGGGGACCGUCCCCUCGGUAAUGGCGAAUGGGACCCA showed a self-cleavage of 0.0332.
Work on GGCCGGCAUGGUCCCAGCCUCCUCGCUGGCGCCCGCUGGGCAACAUUCCGAGGGGUCCGUCCCCUCGGUAAUGGCGAAUGGGACCCA yielded a self-cleavage of 0.277.
Work on GGCCGGCAUGGUCCCAGCCUCCUCGCUGGCGCCCGCUGGGCAACAUUCCGAGGGGACCGUCCCCUCGGUGAUGGCGAAUGGGACCCA yielded a self-cleavage of 0.0898.
Variant GGCCGGCAUGGUCCCAGCCUCCUCGCUGGCGCCCGCUGGGCACCAUUCCGAGGGGACCGUCCCCUCGGUAAUGGCGAAUGGGACCCA has a self-cleavage of 0.364.
GGCCGGCAUGGUCCCAGCCUCCUCGCUGGCGCCCGCUGGGCAUCAUUCCGAGGGGACCGUCCCCUCGGUAAUGGCGAAUGGGACCCA showed a self-cleavage of 0.
GGCCGGCAUGGUCCCAGCCUCCUCGCUGGCGCCCGCUGGGCAACAUUCGGAGGGGACCGUCCCCUCGGUAAUGGCGAAUGGGACCCA showed a self-cleavage of 0.264.
Work on GGCCGGCAUGGUCCCAGCCUCCUCGCUGGCGCCCGCUGGGCAACAUUCCGAGGGGACCGUCCACUCGGUAAUGGCGAAUGGGACCCA yielded a self-cleavage of 0.166.
Work on GGCCGGCAUGGUCCCAGCCUCCUCGCUGGCGCCCGCUGGGCAACAUUCCGAGGGGACCGUCCGCUCGGUAAUGGCGAAUGGGACCCA yielded a self-cleavage of 0.0378.
Work on GGCCGGCAUGGUCCCAGCCUCCUCGCUGGCGCCCGCUGGGAAACAUUCCGAGGGGACCGUCCCCUCGGUAAUGGCGAAUGGGACCCA yielded a self-cleavage of 0.233.
With GGCCGGCAUGGUCCCAGCCUCCUCGCUGGCGCCCGCUGGGUAACAUUCCGAGGGGACCGUCCCCUCGGUAAUGGCGAAUGGGACCCA the self-cleavage was 0.0378.
For GGCCGGCAUGGUCCCAGCCUCCUCGCUGGCGCCCGCUGGGCAACAUUCCGAGGGGACCGUCCCCUCGGUAAUGGCGAAUGGGACCCU, the self-cleavage was 0.192.
For GGCCGGCAUGGUCCCAGCCUCCUCGCUGGCGCCCGCUGGGCAACAUUCCGAGGGGACCGUCCCCUCGGUAAUGGCGAAUGGGACCCG, the self-cleavage was 0.089.
Work on GGCCGGCAUGGUCCCAGCCUCCUCGCUGGCGCCCGCUGGGCAACAUUCCGAGGGGACCGUCCCCUCGGUAAUGGCGAAUGGGACCCC yielded a self-cleavage of 0.224.
GGCCGGCAUGGUCCCAGCCUCCUCGCUGGCGCCCGCUGGGCAACAUUCCGAGGGGACCGUCCCCUCGGUAAUGGCGGAUGGGACCCA showed a self-cleavage of 0.161.
GGCCGGCAUGGUCCCAGCCUCCUCGCUGGCGCCCGCUGGGCAACAUUCCGAGGGGACCGUCCCCUCGGUAAUGGCGCAUGGGACCCA gave a self-cleavage of 0.17.
GGCCGGCAUGGUCCCAGCCUCCUCGCUGGCGCCCGCUGGGCAACAUUCCGAGGGGACCGUCCCCUCGGUAAUGGCGUAUGGGACCCA showed a self-cleavage of 0.125.
Work on GGCCGGCAUGGUCCCAGCCUCCUCGCUGGCGCCCGCUGGGCAACAUUCCGAGGGGACCGUCCCCUCGAUAAUGGCGAAUGGGACCCA yielded a self-cleavage of 0.0692.
With GGCCGGCAUGGUCCCAGCCUCCUCGCUGGCGCCCGCUGGGCAACAUUCCGAGGGGACCUUCCCCUCGGUAAUGGCGAAUGGGACCCA the self-cleavage was 0.0415.
With GGCCGGCAUGGUCCCAGCCUCCUCGCUGGCGCCCGCUGGGCAACAUUCCGAGGGGACCCUCCCCUCGGUAAUGGCGAAUGGGACCCA the self-cleavage was 0.0811.
GGCCGGCAUGGUCCCAGCCUCCUCGCUGGCGCCAGCUGGGCAACAUUCCGAGGGGACCGUCCCCUCGGUAAUGGCGAAGGGGACCCA showed a self-cleavage of 0.0875.
GGCCGGCAUGGUCCCAGCCUCCUCGCUGGCGCCAGCUGGGCAACAUUCCGAGGGGACCGUCCCCUCGGUAAUGGCGAACGGGACCCA showed a self-cleavage of 0.0773.
With GGCCGGCAUGGUCCCAGCCUCCUCGCUGGCGCCAGCUGGGCAACAUUCCGAGGGGACCGUCCCCUCGGUAAUGGCGAAAGGGACCCA the self-cleavage was 0.0755.
GGCCGGCAUGGUCCCAGCCUCCUCGCUGGCGCCCGCUGGGCAACAUUCCGAGGGGACCGUCCCCUCGGUAAUGGCGAAUGGGGCCCA showed a self-cleavage of 0.0959.
GGCCGGCAUGGUCCCAGCCUCCUCGCUGGCGCCCGCUGGGCAACAUUCCGAGGGGACCGUCCCCUCGGUAAUGGCGAAUGGGCCCCA gave a self-cleavage of 0.0898.
GGCCGGCAUGGUCCCAGCCUCCUCGCUGGCGCCCGCUGGGCAACAUUCCGAGGGGACCGUCCCCUCGGUAAUGGCGAAUGGGACCGA gave a self-cleavage of 0.19.
Variant GGCCGGCAUGGUCCCAGCCUCCUCGCUGGCGCCCGCUGGGCAACAUUCCGAGGGGACCGUCCCCUCGGUAAUGGCGAAUGGGACCUA has a self-cleavage of 0.237.
For GGCCGGCAUGGUCCCAGCCUCCUCGCUGGCGCCCGCUGGGCAACAUUCCGAGGGGACCGUCCCCUCGGUAAUGGCGAAUGGGACUCA, the self-cleavage was 0.277.
GGCCGGCAUGGUCCCAGCCUCCUCGCUGGCGCCCGCUGGGCUACAUUCCGAGGGGACCGUCCCCUCGGUAAUGGCGAAUGGGACCCA showed a self-cleavage of 0.262.
GGCCGGCAUGGUCCCAGCCUCCUCGCUGGCGCCCGCUGGGCGACAUUCCGAGGGGACCGUCCCCUCGGUAAUGGCGAAUGGGACCCA gave a self-cleavage of 0.0554.
With GGCCGGCAUGGUCCCAGCCUCCUCGCUGGCGCCCGCUGGGCAACAUUCCAAGGGGACCGUCCCCUCGGUAAUGGCGAAUGGGACCCA the self-cleavage was 0.287.
With GGCCGGCAUGGUCCCAGCCUCCUCGCUGGCGCCCGCUGGGCAACAUUGCGAGGGGACCGUCCCCUCGGUAAUGGCGAAUGGGACCCA the self-cleavage was 0.162.
For GGCCGGCAUGGUCCCAGCCUCCUCGCUGGCGCCCGCUGGGCAACAUUCCGAGGGGACCGUCCCCUCGGUAAUGGCGAAUGGGAACCA, the self-cleavage was 0.
In the case of GGCCGGCAUGGUCCCAGCCUCCUCGCUGGCGCCCGCUGGGCAACAUUCCGAGGGGACCGUCCCCUCGGUAAUGGCGAAUGGGAGCCA, the self-cleavage is reported as 0.166.
In the case of GGCCGGCAUGGUCCCAGCCUCCUCGCUGGCGCCCGCUGGGCAACAUUCCGAGGGGACCGUCCCCUAGGUAAUGGCGAAUGGGACCCA, the self-cleavage is reported as 0.35.
Variant GGCCGGCAUGGUCCCAGCCUCCUCGCUGGCGCCCGCUGGGCAACAUUCCGAGGGGACCGUCCCCUUGGUAAUGGCGAAUGGGACCCA has a self-cleavage of 0.266.
GGCCGGCAUGGUCCCAGCCUCCUCGCUGGCGCCCACUGGGCAACAUUCCGAGGGGACCGUCCCCUCGGUAAUGGCGAAUGGGACCCA showed a self-cleavage of 0.115.
Work on GGCCGGCAUGGUCCCAGCCUCCUCGCUGGCGCCCUCUGGGCAACAUUCCGAGGGGACCGUCCCCUCGGUAAUGGCGAAUGGGACCCA yielded a self-cleavage of 0.306.
Variant GGCCGGCAUGGUCCCAGCCUCCUCGCUGGCGCCCGCUCGGCAACAUUCCGAGGGGACCGUCCCCUCGGUAAUGGCGAAUGGGACCCA has a self-cleavage of 0.122.
GGCCGGCAUGGUCCCAGCCUCCUCGCUGGCGCCCGCUUGGCAACAUUCCGAGGGGACCGUCCCCUCGGUAAUGGCGAAUGGGACCCA showed a self-cleavage of 0.0378.
GGCCGGCAUGGUCCCAGCCUCCUCGCUGGCGCCCGCUAGGCAACAUUCCGAGGGGACCGUCCCCUCGGUAAUGGCGAAUGGGACCCA showed a self-cleavage of 0.0959.
For GGCCGGCAUGGUCCCAGCCUCCUCGCUGGCGCCCGCUGGGCAACAUUCCGAGGGGACCGUCCCUUCGGUAAUGGCGAAUGGGACCCA, the self-cleavage was 0.271.
GGCCGGCAUGGUCCCAGCCUCCUCGCUGGCGCCCGCUGGGCAACAUUCCGAGGGGACCGUCCCGUCGGUAAUGGCGAAUGGGACCCA showed a self-cleavage of 0.306.
With GGCCGGCAUGGUCCCAGCCUCCUCGCUGGCGCCCGCUGGUCAACAUUCCGAGGGGACCGUCCCCUCGGUAAUGGCGAAUGGGACCCA the self-cleavage was 0.151.
Work on GGCCGGCAUGGUCCCAGCCUCCUCGCUGGCGCCAGCUGGGCAACAUUCCGAGGGGACCGUCCCCUCGGGAAUGGCGAAUGGGACCCA yielded a self-cleavage of 0.306.
In the case of GGCCGGCAUGGUCCCAGCCUCCUCGCUGGCGCCCGCUGGGCAACAUUCCGGGGGGACCGUCCCCUCGGUAAUGGCGAAUGGGACCCA, the self-cleavage is reported as 0.346.
GGCCGGCAUGGUCCCAGCCUCCUCGCUGGCGCCCGCUGGGCAACAUUCCGCGGGGACCGUCCCCUCGGUAAUGGCGAAUGGGACCCA gave a self-cleavage of 0.107.
In the case of GGCCGGCAUGGUCCCAGCCUCCUCGCUGGCGCCCGCUGGGCAACAUUCCGUGGGGACCGUCCCCUCGGUAAUGGCGAAUGGGACCCA, the self-cleavage is reported as 0.141.
With GGCCGGCAUGGUCCCAGCCUCCUCGCUGGCGCCCGCUGGGCAACAUUCCGAGGGGACCGUCACCUCGGUAAUGGCGAAUGGGACCCA the self-cleavage was 0.162.
For GGCCGGCAUGGUCCCAGCCUCCUCGCUGGCGCCCGCUGGGCAACAUUCCGAGGGGACCGUCUCCUCGGUAAUGGCGAAUGGGACCCA, the self-cleavage was 0.262.
GGCCGGCAUGGUCCCAGCCUCCUCGCUGGCGCCCGCUGGGCAACAUUCCGAGGGGACGGUCCCCUCGGUAAUGGCGAAUGGGACCCA gave a self-cleavage of 0.287.
GGCCGGCAUGGUCCCAGCCUCCUCGCUGGCGCCCGCUGGGCAACAUUCCGAGUGGACCGUCCCCUCGGUAAUGGCGAAUGGGACCCA showed a self-cleavage of 0.163.
GGCCGGCAUGGUCCCAGCCUCCUCGCUGGCGCCCGCUGGGCAACAUUCCGAGGGGAACGUCCCCUCGGUAAUGGCGAAUGGGACCCA gave a self-cleavage of 0.288.
GGCCGGCAUGGUCCCAGCCUCCUCGCUGGCGCCCGCUGGGCAACAUUCCGAUGGGACCGUCCCCUCGGUAAUGGCGAAUGGGACCCA showed a self-cleavage of 0.155.
GGCCGGCAUGGUCCCAGCCUCCUCGCUGGCGCCCGCUGGGCAACAUUCCGACGGGACCGUCCCCUCGGUAAUGGCGAAUGGGACCCA gave a self-cleavage of 0.267.
In the case of GGCCGGCAUGGUCCCAGCCUCCUCGCUGGCGCCCGCUGGGCAACAUUCCGAGGAGACCGUCCCCUCGGUAAUGGCGAAUGGGACCCA, the self-cleavage is reported as 0.166.
Variant GGCCGGCAUGGUCCCAGCCUCCUCGCUGGCGCCAGCUGGGCAACAUUCCGAGGGGACCGUCCCCUCGGUAACGGCGAAUGGGACCCA has a self-cleavage of 0.0692.
GGCCGGCAUGGUCCCAGCCUCCUCGCUGGCGCCAGCUGGGCAACAUUCCGAGGGGACCGUCCCCUCGGUAAGGGCGAAUGGGACCCA showed a self-cleavage of 0.0326.
In the case of GGCCGGCAUGGUCCCAGCCUCCUCGCUGGCGCCCGCUGGGCAACGUUCCGAGGGGACCGUCCCCUCGGUAAUGGCGAAUGGGACCCA, the self-cleavage is reported as 0.147.
